Source: US20240376454A1 (CORNELL UNIVERSITY, published 2024)

Assays:
[1] = target: T1, Pfu Cas3 HD L139A/HEL V418A (Pyrococcus furiosus, UniProt Q8U336 1-237, limits assumed); experiment: Strep-tag pull-down, SDS-PAGE
T1 construct: tags as for m8
T1 sequence 1: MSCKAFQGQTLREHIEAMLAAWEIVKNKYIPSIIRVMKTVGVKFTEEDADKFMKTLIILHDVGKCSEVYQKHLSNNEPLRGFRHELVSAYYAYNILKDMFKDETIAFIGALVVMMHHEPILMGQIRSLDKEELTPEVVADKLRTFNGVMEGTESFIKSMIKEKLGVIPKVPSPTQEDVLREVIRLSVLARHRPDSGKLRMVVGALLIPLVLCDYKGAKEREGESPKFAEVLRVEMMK
T1 sequence 2: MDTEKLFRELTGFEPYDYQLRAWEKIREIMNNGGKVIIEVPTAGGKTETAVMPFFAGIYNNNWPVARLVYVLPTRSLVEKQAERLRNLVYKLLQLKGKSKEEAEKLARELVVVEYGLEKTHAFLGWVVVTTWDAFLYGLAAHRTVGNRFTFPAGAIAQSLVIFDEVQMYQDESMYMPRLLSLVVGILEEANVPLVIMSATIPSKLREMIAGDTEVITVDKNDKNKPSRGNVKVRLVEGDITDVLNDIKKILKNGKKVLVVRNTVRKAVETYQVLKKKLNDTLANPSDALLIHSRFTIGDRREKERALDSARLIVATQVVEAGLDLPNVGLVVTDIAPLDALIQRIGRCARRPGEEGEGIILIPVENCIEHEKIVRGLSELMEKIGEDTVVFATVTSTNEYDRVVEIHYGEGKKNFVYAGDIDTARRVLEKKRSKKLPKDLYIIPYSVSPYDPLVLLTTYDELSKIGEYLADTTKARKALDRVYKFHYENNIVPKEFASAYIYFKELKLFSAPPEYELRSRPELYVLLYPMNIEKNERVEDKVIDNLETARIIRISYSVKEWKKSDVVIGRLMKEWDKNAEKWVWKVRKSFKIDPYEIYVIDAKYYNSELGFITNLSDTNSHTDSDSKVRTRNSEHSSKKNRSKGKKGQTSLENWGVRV
Source text: (§1) Binding of Pfu Cas3 effectively eliminates the severe domain movements in Cas8a NTD, and rigidifies the rest of the inner belly subunits in place (FIG. 3A-B). The lockdown effect is achieved through an extensive Cas3-Cas8a interface that spans across the NTD and CTD of Cas8a, which prevents the hinge motion in between the two domains. […] To validate structural observations, we mutagenized three conserved interface residues on Cas3 individually and in combination, two from the HD nuclease (V187E, L139A) and one from the helicase subunit (V418A). In Strep-tag pull-down experiments, each mutation reduced the affinity between Cas3 and Cascade, albeit to various extents. In particular, Cas3 HD V187E and HD L139A/HEL V418A completely disrupted Cas3 interaction with Cascade (FIG. 19). Thus, in embodiments, any Cas3 sequence that is at least 85% similar to a Pfu Cas3 may retain the described wild type amino acids.
(§2) 15 μg of strep-tagged Pfu Cascade and 15 μg of untagged Pfu Cas3 complex were mixed and incubated with 10 μL of strep resin at 4° C. for 30 min in a binding buffer (50 mM HEPES pH7.5, 10% glycerol, 300 mM NaCl), in a total assay volume of 50 μL. […]

Pfu Cas3 HD V187E = target: T2, Pfu Cas3 HD V187E (Pyrococcus furiosus, UniProt Q8U336 1-237, limits assumed); experiment: Strep-tag pull-down, SDS-PAGE
T2 construct: The pull-down method speaks of an 'untagged Pfu Cas3 complex'; also called Cas3 V187E
T2 sequence 1: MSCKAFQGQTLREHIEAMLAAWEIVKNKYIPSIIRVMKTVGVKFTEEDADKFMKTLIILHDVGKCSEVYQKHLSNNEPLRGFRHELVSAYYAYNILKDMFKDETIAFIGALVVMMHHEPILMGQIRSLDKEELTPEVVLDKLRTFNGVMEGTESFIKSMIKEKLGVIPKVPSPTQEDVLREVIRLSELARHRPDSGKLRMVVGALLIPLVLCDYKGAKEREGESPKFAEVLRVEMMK
T2 sequence 2: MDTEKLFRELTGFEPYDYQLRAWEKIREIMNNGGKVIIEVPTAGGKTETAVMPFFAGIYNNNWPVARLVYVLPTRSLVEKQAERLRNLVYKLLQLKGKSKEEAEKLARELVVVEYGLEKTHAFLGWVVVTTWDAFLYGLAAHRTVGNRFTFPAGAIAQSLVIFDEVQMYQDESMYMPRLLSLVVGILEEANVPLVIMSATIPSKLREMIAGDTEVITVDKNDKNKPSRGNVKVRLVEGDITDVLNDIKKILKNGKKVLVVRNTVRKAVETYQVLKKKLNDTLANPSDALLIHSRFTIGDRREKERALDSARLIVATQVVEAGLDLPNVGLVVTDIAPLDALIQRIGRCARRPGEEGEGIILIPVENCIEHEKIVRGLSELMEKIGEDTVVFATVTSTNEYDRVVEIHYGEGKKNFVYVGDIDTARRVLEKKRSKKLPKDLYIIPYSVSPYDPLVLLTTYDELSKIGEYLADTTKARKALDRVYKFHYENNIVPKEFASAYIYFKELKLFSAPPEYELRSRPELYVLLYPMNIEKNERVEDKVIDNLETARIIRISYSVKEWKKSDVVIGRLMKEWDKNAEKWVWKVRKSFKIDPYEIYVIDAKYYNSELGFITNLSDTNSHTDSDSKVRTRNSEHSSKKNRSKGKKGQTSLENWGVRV
Source text: as §1, §2

B1: Pfu Cascade (other)
chain 1: not shown
chain 2: MDILLVCLRFPFFSVAKRSYQVRTSFLLPPPSALKGALAKGLILLKPEKYASSSLDEAALKAIKEIESKLVDIKAVSVAPLSPLIRNAFLLKRLRNLESGSNAEKSDAMRREYTFTRELLVAYIFKNLTQEEKNLYLKAAMLIDVIGDTESLATPVWASFVKPEDKKAPLAFSAPYTEIYSLLSSKIQAKGKIRMYIEKMRVSPEYSKTKGPQEEIFYLPIEERRYKRIVYYARTIYPPEVEKALTVDGEVLGIWIPKNSSESGSHHHHHHH
chain 3: MMYVRISGRIRLNAHSLNAQGGGGTNYIEITKTKVTVRTENGWTVVEVPAITGNMLKHWHFVGFVDYFKTTPYGVNLTERALRYNGTRFGQGETTATKANGATVQLNDEATIIKELADADVHGFLAPKTGRRRVSLVKASFILPTEDFIKEVEGERLITAIKHNRVDVDEKGAIGSSKEGTAQMLFSREYATGLYGFSIVLDLGLVGIPQGLPVKFEENQPRPNIVIDPNERKARIESALKALIPMLSGYIGANLARSFPVFKVEELVAIASEGPIPALVHGFYEDYIEANRSIIKNARALGFNIEVFTYNVDLGEDIEATKVSSVEELVANLVKMVGGKE
chain 4: MGGWIRNIGRYLSYLVDDTFEEYAYDVVDGIAKARTQEELLEGVYKALRLAPKLKKKAESKGCPPPRIPSPEDIEALEEKVEQLSNPKDLRKLAVSLALWAFASWNNCPKKGKGTEGGVE
notes: Ribonucleoprotein complex that also holds the chimeric crRNA (Pfu 5'-handle, E. coli 3'-handle); also called I-A Pfu Cascade; apo Pfu Cascade
B1: no binding [1]; no binding (Pfu Cas3 HD V187E).
